Test results as given in patent publication US20160237154A1 (SORRENTO THERAPEUTICS, published 2016).

T1: human CTLA4 (human, UniProt P16410 36-161, limits assumed)
T1 sequence (looked up): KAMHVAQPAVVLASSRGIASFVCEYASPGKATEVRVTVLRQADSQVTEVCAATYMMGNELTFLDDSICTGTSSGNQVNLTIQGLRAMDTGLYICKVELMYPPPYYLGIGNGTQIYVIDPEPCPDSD

T2: Recombinant human CTLA4/His (human, UniProt P16410 36-162, limits assumed)
T2 construct: not shown: His tag
T2 sequence (looked up): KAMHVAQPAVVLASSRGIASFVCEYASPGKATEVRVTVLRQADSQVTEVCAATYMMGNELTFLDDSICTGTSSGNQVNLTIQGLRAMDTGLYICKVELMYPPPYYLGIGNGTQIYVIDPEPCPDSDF

B1: G2 (antibody, V domains shown)
VH: QVQLVESGGGLIQPGGSLRLSCAASGFTVSSAYMSWVRQAPGKGLEWVSVIYRGGTTYYADSVKGRFTISRDNSKNTLYLQMNSLRAEDTAVYYCRGEGGNSGDYFDYWGQGTTVTVSS
VL: NFMLTQPASVSGSPGQSITISCTGTSSDVGGYNFVSWYQQHPGKAPKLMIYDVSKRPSGVSNRFSGSKSGNTASLTISGLQAEDEADYYCSSYTSTNTLDVLFGGGTKLTVL
B2: G3 (antibody, V domains shown)
VH: QVQLVQSGAEVKKPGASVKVSCKASGYTFTSYYMHWVRQAPGQGLEWMGIINPSGGSTSYAQKFQGRVTMTRDTSTSTVYMELSGLRSEDTAVYYCARYEHDYDSSKATTGYFDYWGQGTLVTVSS
VL: AIQLTQSPDSLAVSLGERATINCKSSQSILYRSNNKNYLAWYQQKPGQPPKLLIYWASTRESGVPDRFSGSGSGTDFTLTISSLQPEDFATYYCQQADRFPITFGQGTRLEIK
B3: F5 (antibody, V domains shown)
VH: EVQLVQSGTEVKKPGSSVKVSCKASGGSFSNYAISWVRQAPGQGLEWMGRIIPILGIANYAQKFQGRVTITADKSTSTAYMELSSLGSEDTAVYYCARESGSYLDPWGQGTLVTVSS
VL: DIVMTQSPDSLAVSLGERATINCKSSQSVLYSPNNKNYLTWYQQKPGQPPKLLMYWASTRESGVPDRFSASGSGTDFTLTISSLQAEDVAVYYCQQSRSGPYTFGQGTKVEIK
B4: B6 (antibody, V domains shown)
VH: QVQLVQSGAEVKKPGATVKVSCTASGFPFRNYAMHWVRQAPGQRLEWLGWIDAGNGNTKYSQTFHGRVTITRDTSASTAYMELSSLRSEDTAVYYCARDLLWPYLVTSGGAFDIWGQGTMVTVSS
VL: SYELMQPPSTSGTPGQRVTISCSGSSSNIGSHIVNWYQQFPGAAPQLLIYNDDQRPSGVPDRFSGSKSGASASLAISGLQSEDEAHYYCSAWDDILKGPVFGGGTKLTVL
B5: G12 (antibody, V domains shown)
VH: EVQLVESGAEVKKPGASVKVSCKASGYTFTSYGISWVRQAPGQGLEWMGWISAYNGNTNYAQKLQGRVTMTTDTSTSTAYMELRSLRSDDTAVYYCARGPGILTGYYFDYWGQGTLVTVSS
VL: EIVMTQSPSSLSASVGDRVTITCRASQGINYHLAWYQQKPGKAPKLLIYAASALQSGVPSRFSGTGSGTEFTLTISSLQPEDFATYYCQQFNTYPLTFGGGTKLEIK
B6: C2 (antibody, V domains shown)
VH: QVQLVQSGAEVKKPGASVKVSCKASGYTFTTHYIHWVRQAPGQGLEWMAIINPNDGVKVYAQKFKGRLTVASDTSATTVYMDLSGLTSDDTAVYYCGREQHGGHHDYWGQGTLVTVSS
VL: QAGLTQPASVSGSPGQSITISCTGTSSDVGGYNYVSWYQQHPGKAPKLMIYDVTNRPSGVSNRFSGSKSGNTASLTISGLQAEDEADYYCKSYTSSSTPYVFGTGTKVTVL
B7: A12 (antibody, V domains shown)
VH: QVQLVESGGGLVQPGGSLRLSCAASGFTFSNYAMNWVRQTPGKGLEWVSVNYNDGFGTFNGYYADSVKGRFIISRDNSKNTLYLQMNSLRVDDTAVYYCARDSGVAGPYYFDNWGQGTLVTVSS
VL: AIQLTQSPSTLSASVGDRVTITCRASQSISSWLAWYQQKPGKAPKLLIYKASSLESGVPSRFSGSGSGTEFTLTISSLQPDDFATYYCQQYNSSPLTFGGGTKLEIK
B8: F3 (antibody, V domains shown)
VH: QMQLVQSGAEVKKPGASVTVSCKASGYTFTNSYIHWVRQAPGQGLEWVGRLIPSSGYTIFSQKLQGRVSMTRDTSMSTHYLTLSHLRPEDTAVYYCATDGGNYNLDFWGQGTLVTVSS
VL: QPVLTQPPSVSGSPGQSVTISCTGTSSDVGGYNYVSWYQQHPGKAPKLMIYDVSSRPSGVSNRFSGSKSDNTASLTISGLQAEDEADYYCSSYTSSSPYVFGTGTKVTVL
B9: G1 (antibody, V domains shown)
VH: QVQLVQSGAEVKKPGASVKVSCKTSGNTFTNYYMHWVRQAPGQGLEWMGIMNPSGGSTSYAQKFQGRVTMTRDKSTSTVYMELSSLTSEDTAVYYCARDLFPHIYGNYYGMDIWGQGTTVTVSS
VL: QSVVTQPPSVSAAPGQNVTISCSGSSSNIGNNYVSWYQQLPGTAPKLLIYDNNRRASGIPDRFSGSKSGTSATLGITGLQTGDEADYYCGTWDRSLTTDWVFGGGTKLTVL
B10: E8 (antibody, V domains shown)
VH: QVQLVQSGAEVKKPGASVKVSCEASGYTFTNYYIHWLRQAPGQGLEWMGIINPSGGSTTYAQKFQGRITMTRDTSTNTLYMELSSLRSEDTAIYYCARRDCRGPSCYFAYWGQGTTVTVSS
VL: DIVMTQSPSSLSASVGDRVTITCRASQSISSYLNWYQQKPGKAPKLLIYAASSLQSGVPPRFSGSGSGTEFTLTISSLQPEDFATYYCQQANSFPPTFGQGTKVDIK
notes: also called antibody E8
B11: G5 (antibody, V domains shown)
VH: QVQLQQSGPGLVKPSQTLSLTCAISGDSVSSNSAAWNWIRQSPSRGLEWLGRTYYRSKWYNDYAVSVKSRITINPDTSKNQFSLQLNSVTPEDTAVYYCARDRWELPFDYWGQGTTVTVSS
VL: QSVVTQPPSVSAASGQKVIISCSGSNSNIVNNYVSWYQQLPGAAPKVLIYANNKRPSGIPDRFSGSKSGTSAFLAITGLQTGDEADYYCGTWDGSLDVDVFGGGTKLTVL
B12: F6 (antibody, V domains shown)
VH: EVQLVESGGGFVKPGRSLRLSCTASGFTFGDYGMSWFRQAPGKGLEWVGFIRSKAYGGTTDYAASVKGRFTISRDDSKSFAYLQMNSLKTEDTAVYYCTRGHYSASIWGQGTLVTVSS
VL: SYELMQPPSVSVAPGKTARITCGGNNIGSKSVHWYQQRPDQAPVLVIYSDNDRPSGIPERFSGSSSGHTATLTISRVEAGDEADYFCQVWDSNKNEWVFGGGTKLTVL
B13: F1 (antibody, V domains shown)
VH: EVQLVQSGAEVKKPGASVKVSCKASGYTFTSYGISWVRQAPGQGLEWMGWISAYNGNTNYAQKLQGRVTMTTDTSTSTAYMELRSLRSDDTAVYYCARVGYGGYFDYWGQGTLVTVSS
VL: SYELMQPPSVSKGLRQTATLTCTGNSNNVGNQGADWLQQHQGHPPKLLSYRNNDRPSGISERFSASRSGSTASLTITGLQPEDEADYYCLAWDSSLSAWVFGGGTKVTVL
B14: D5 (antibody, V domains shown)
VH: QVQLQQSGPGLVKPSQTLSLTCAISGDSVSSNSAAWNWIRQSPSRGLEWLGRTYYRSKWYNDYAVSVKSRITINPDTSKNQFSLQLNSVTPEDTAVYYCAMHSGYRNYGMDVWGQGTTVTVSS
VL: QSVVTQPPSVSGAPGQRVTISCTGSSSNIGAGYDVHWYQQLPGTAPKLLIYGNSNRPSGVPDRFSGSKSGTSASLAITGLQAEDEADYYCQSYDSSLSGAVVFGGGTKLTVL
B15: A7 (antibody, V domains shown)
VH: QMQLVQSGAEVKKPGASVKVSCKASGGTFSSYAISWVRQAPGQGLEWMGGIIPIFGTANYAQKFQGRVTITADESTSTAYMELSSLRSEDTAVYYCAREIGSYSSGWYRAFDIWGQGTMVTVSS
VL: DIVMTQSPSTLSASVGDRVTITCRASQSISSWLAWYQQKPGKAPQLLIYKASNLQSGVPSRFSGSGSVTEFSLTISSLLPEDFATYYCQQYSRPPWTFGQGTKVEIK
B16: A4 (antibody, V domains shown)
VH: QVQLVESGGGLIQPGGSLRLSCAASGFSVSNNYMNWVRQAPGKGLEWVSVIYRGGSTYYADSVKGRFTISRDNSKNTLYLQMNSLRTEDTAVYYCLREGGTSGDYVNDWGQGTLVTVSS
VL: QSVVTQPPSVSGAPGQRVTISCTGSSSNIGAGYDVHWYQQLPGTAPKLLIYGNKNRPSGVPDRFSGSKSGTSASLAITGLQAEDEADYYCQAYDSSLSVVFGGGTKLTVL
B17: F7 (antibody, V domains shown)
VH: QVQLVQSGAEVKKPGASVKVSCKASGYAFDGHYMHWVRQAPGQRLEWMGWVDPHSGATNYAQNFQGGVTMTRDTSINTVYMELSSLKSDDTAVYYCARDFYDTSAKSGAFDIWGQGTMVTVSS
VL: AIQLTQSPSSVSASVGDRVTITCRASQGISSWLAWYQQKPGKAPKLLIYAASSLQSGVPSRFSGSGSGTDFTLTISSLQPEDFATYYCQQVNSFPWAFGQGTKVEIK
notes: captured by anti-human Fc antibody in SPR, so it has a human Fc; also called anti-CTLA4 antibody F7
B18: A2 (antibody, V domains shown)
VH: QMQLVQSGAEVKMPGSSVRISCKASGGSFTTHFINWVRQAPGQGLEWMGWMNPNTGNTGYAERFQGRVTLTRDTSISTAYLELSSLRSDDTAVYYCARNPAESGRFDPWGQGTLVTVSS
VL: QSALTQPPSASGSPGRSVTISCTGTSNNVGGYNYVSWYQQHPGKAPKLMIYEVTKRPSGVPDRFSGSKSGNTASLTVSGLQAEDEADYYCGTWDGSLNAYVFGTGTKVTVL

Columns and labels:
human CTLA4 [1] = biological target: T1, human CTLA4; assay: selection of human antibodies; method not described
human CTLA4 [2] = biological target: T1, human CTLA4; assay: SPR (BiaCore)
[3] = biological target: T2, Recombinant human CTLA4/His; assay: SPR (Biacore), antibody captured on anti-human Fc, CTLA4/His as analyte, 1:1 model
Protocol: This example illustrates binding affinities of exemplary anti-CTLA4 antibodies disclosed herein. Affinities were determined using surface plasmon resonance (Biacore). Briefly, Anti-human Fc antibody (GE, BR-1008-39) was immobilized on CM5 sensor chip to approximately 1000 RU using standard NHS/EDC coupling methodology. Antibodies (about 10 μg/ml) were captured for 60 s at a flow rate 10 μl/min Recombinant human CTLA4/His was serially diluted in running buffer (HBS-EP). All measurements were conducted with a flow rate of 30 μL/min Surfaces were regenerated with 3M MgCl₂ for 60 s. A 1:1 (Langmuir) binding model was used to fit the data.

Row | Binder | binding result (human CTLA4 [1]) | also measured
1 | B1 | binds | –
2 | B2 | binds | –
3 | B3 | binds | –
4 | B4 | binds | –
5 | B5 | binds | –
6 | B6 | binds | –
7 | B7 | binds | –
8 | B8 | binds | –
9 | B9 | binds | –
10 | B10 | – | Kd (human CTLA4 [2]): 58.9 nM; koff (human CTLA4 [2]): 0.00488 s⁻¹; kon (human CTLA4 [2]): 82900 M⁻¹ s⁻¹
11 | B11 | binds | –
12 | B12 | binds | –
13 | B13 | binds | –
14 | B14 | binds | –
15 | B15 | binds | –
16 | B16 | binds | –
17 | B17 | – | Kd [3]: 0.738 nM; koff [3]: 0.000217 s⁻¹; kon [3]: 294000 M⁻¹ s⁻¹
18 | B18 | binds | –
